Experimental data from publication PMC3124082.

Target: Putative NADPH-quinone reductase
Assay: SAXS

“Putative NADPH-quinone reductase (natural protein)” was tested, and the fraction of dimer in the oligomer mixture was 47% and the fraction of tetramer in the oligomer mixture was 53%.
